In patent US8168592B2 (Amgen Inc., priority 2005, dated 2012):
Square brackets hold non-standard residues; d marks the D form. Peptide text beside a SMILES is read from it. 1Nal = N[C@@H](Cc1cccc2ccccc12)C(=O)O; hArg = N=C(N)NCCCC[C@H](N)C(=O)O; Cit = NC(=O)NCCC[C@H](N)C(=O)O; PEG = not defined here

Assays:
[1] = rat pharmacokinetic studies; settings: 2 mg/kg; for AUC0-inf / AUC0-t / CL / MRT / Vss / t1/2 / CL/F / Cmax / F % / Tmax: rat, mean, n = 3
Description: Rat pharmacokinetic studies. […] There were three rats per group (n=3), each weighing 250-325 g. Each group received either a 2 mg/kg intravenous or subcutaneous discrete administration. The approximate dose volume was 0.3 mL per rat. Approximately 0.25 mL of whole blood was taken per time point at the following post-dose collection times for the intravenous groups (in hours): 0.083, 0.25, 0.5, 1, 2, 4, 6, 8, 24, 48, 72, 96 and the following time points for the subcutaneous groups (in hours): 0.25, 0.5, 1, 2, 4, 6, 8, 24, 48, 72, 96. Whole blood samples were collected in microtainer vials containing EDTA as anticoagulant and were kept on wet ice until processed for plasma. The plasma was obtained by centrifuging the whole blood for approximately 5 min at 11,500 rpm. Plasma was transferred to new tubes and stored frozen at approximately −70° C. until quantitative analysis. […] The individual sample concentrations for each time point were averaged (n=3) within a given dose group using Excel 2000 software. The averaged plasma concentration-time data were analyzed by noncompartmental methods using WinNonlin v.3.3 software. Nominal sample times were used in the pharmacokinetic analysis. The area under the concentration-time curve was calculated using the linear/log trapezoidal method to determine exposure.

[2] = target: T1, CGRP1 receptor (Homo sapiens, UniProt O60894+Q16602); assay: in vitro CGRP1 receptor mediated cAMP assay in SK-N-MC cells; assay type: cell-based
T1 construct: SK-N-MC cells express CRLR and RAMP1, which form CGRP1 receptor; endogenous in cells; host or cells: SK-N-MC human neuroblastoma cells
Procedure, shortened: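 Intracellular cAMP served as the Gs-coupled CGRP1 readout in endogenously expressing SK-N-MC cells. After a 15-minute room-temperature step in plasma-free medium, cell lysates (30 minutes, 37° C) went into a competitive ELISA with a cAMP-AP conjugate and anti-cAMP antibody for 1 hour, then a 30-minute substrate enhancer step before reading.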

[3] = in vitro stability in 10% human plasma, LC-MS/MS; assay type: in vitro ADME; settings: room temperature, 100 ng/ml; for % Remaining: 0 h
Description: (§1) Consequently, the stability of select, non-PEGylated analogs was evaluated in vitro in the presence of 10% rat or human plasma. Briefly, samples of each peptide were diluted to 100 ng/ml into PBS containing 10% of rat or human plasma. Each sample was then incubated at room temperature and analyzed by LC-MS/MS to quantitate the intact peptide remaining at select time points over 6 hours.

[4] = in vitro stability in 10% rat plasma, LC-MS/MS; assay type: in vitro ADME; settings: room temperature, 100 ng/ml; for % Remaining: 0 h
Description: as §1

T1 sequence (Q16602 23-461): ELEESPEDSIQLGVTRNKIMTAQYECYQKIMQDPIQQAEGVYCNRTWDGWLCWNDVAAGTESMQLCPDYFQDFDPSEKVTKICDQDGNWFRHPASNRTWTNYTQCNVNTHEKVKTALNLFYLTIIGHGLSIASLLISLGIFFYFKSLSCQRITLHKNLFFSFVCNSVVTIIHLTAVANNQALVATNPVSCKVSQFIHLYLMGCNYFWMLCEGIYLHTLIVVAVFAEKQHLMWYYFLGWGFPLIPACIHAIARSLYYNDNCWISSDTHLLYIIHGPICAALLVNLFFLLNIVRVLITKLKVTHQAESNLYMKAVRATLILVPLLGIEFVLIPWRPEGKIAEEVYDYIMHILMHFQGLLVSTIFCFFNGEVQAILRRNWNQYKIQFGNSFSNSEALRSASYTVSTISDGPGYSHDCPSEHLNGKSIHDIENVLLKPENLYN
T1 sequence (O60894 27-148): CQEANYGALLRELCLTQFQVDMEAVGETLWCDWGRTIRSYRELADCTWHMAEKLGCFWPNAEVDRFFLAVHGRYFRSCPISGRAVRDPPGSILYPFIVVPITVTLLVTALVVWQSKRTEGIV

SEQ ID NO: 40: double glutamine analog PEGylated through amine linkage (Ac-WVTHQLAGLLSQSGGVVRK(PEG)NFVPTDVGPFAF-NH2; reading uncertain)
AUC0-inf ([1]; IV): 10666 ng·h/mL
AUC0-t ([1]; IV): 10651 ng·h/mL
CL ([1]; IV): 187 mL/h/kg
MRT ([1]; IV): 2.63 h
Vss ([1]; IV): 496 mL/kg
t1/2 ([1]; IV): 32.57 h
AUC0-inf ([1]; SC): 1223 ng·h/mL
AUC0-t ([1]; SC): 1212 ng·h/mL
CL/F ([1]; SC): 1634 mL/h/kg
Cmax ([1]; SC): 121 ng/mL
F % ([1]; SC): 11%
Tmax ([1]; SC): 4.00 h
t1/2 ([1]; SC): 27.15 h

SEQ ID NO:32 (WVTHXLAGLLSXSGGVVRKNFVPTDVGPFAF; CGRP peptide; MOD_RES (1)..(1): …ON; MISC_FEATURE (5)..(5): xaa=citrulline; MISC_FEATURE (12)..(12): xaa=citrulline; MISC_FEATURE (19)..(19): PEGylated; MOD_RES (31)..(31): AMIDATION)
antagonist activity in cAMP assay, in words [2]: relatively minor loss of in vitro antagonist activity
mean residence time (MRT) longer compared to SEQ ID NO:15 ([1]; intravenous): 4 times
bioavailablity (F %) ([1]; subcutaneous): 47%
exposure (AUC) increase compared to SEQ ID NO:15 ([1]; subcutaneous): about 15 fold

CC(=O)N[C@@H](Cc1c[nH]c2ccccc12)C(=O)N[C@H](C(=O)N[C@H](C(=O)N[C@@H](Cc1cnc[nH]1)C(=O)N[C@@H](CCCCNC(=N)N)C(=O)N[C@@H](CC(C)C)C(=O)N[C@@H](C)C(=O)NCC(=O)N[C@@H](CC(C)C)C(=O)N[C@@H](CC(C)C)C(=O)N[C@@H](CO)C(=O)N[C@@H](CCCCNC(=N)N)C(=O)N[C@@H](CO)C(=O)NCC(=O)NCC(=O)N[C@H](C(=O)N[C@H](C(=O)N[C@@H](CCCNC(=N)N)C(=O)N[C@@H](CCCCN)C(=O)N[C@@H](CC(N)=O)C(=O)N[C@@H](Cc1ccccc1)C(=O)N[C@H](C(=O)N1CCC[C@H]1C(=O)N[C@H](C(=O)N[C@@H](CC(=O)O)C(=O)N[C@H](C(=O)NCC(=O)N1CCC[C@H]1C(=O)N[C@@H](Cc1ccccc1)C(=O)N[C@@H](C)C(=O)N[C@@H](Cc1ccccc1)C(N)=O)C(C)C)[C@@H](C)O)C(C)C)C(C)C)C(C)C)[C@@H](C)O)C(C)C [SEQ ID NO: 25]
% Remaining [3]: 100.0%
remaining at 0.17 h, 100 ng/ml [3]: 88.3%
remaining at 0.5 h, 100 ng/ml [3]: 47.3%
remaining at 1 h, 100 ng/ml [3]: 28.7%
remaining at 2 h, 100 ng/ml [3]: 11%
remaining at 3 h, 100 ng/ml [3]: 5.4%
remaining at 4 h, 100 ng/ml [3]: 3.1%
remaining at 5 h, 100 ng/ml [3]: 3.6%
remaining at 6 h, 100 ng/ml [3]: 2.8%

SEQ ID NO: 32: PEGylated R11Cit, R18Cit analog (product of SEQ ID NO:31) (WVTHXLAGLLSXSGGVVRKNFVPTDVGPFAF; PEGylated; citrulline at 11 and 18; CGRP peptide; MOD_RES (1)..(1): …ON; MISC_FEATURE (5)..(5): xaa=citrulline; MISC_FEATURE (12)..(12): xaa=citrulline; MISC_FEATURE (19)..(19): PEGylated; MOD_RES (31)..(31): AMIDATION)
AUC0-inf ([1]; IV): 40431 ng·h/mL
AUC0-t ([1]; IV): 40250 ng·h/mL
CL ([1]; IV): 49 mL/h/kg
MRT ([1]; IV): 4.12 h
Vss ([1]; IV): 204 mL/kg
t1/2 ([1]; IV): 42.78 h
AUC0-inf ([1]; SC): 19046 ng·h/mL
AUC0-t ([1]; SC): 18933 ng·h/mL
CL/F ([1]; SC): 105 mL/h/kg
Cmax ([1]; SC): 1879 ng/mL
F % ([1]; SC): 47%
Tmax ([1]; SC): 4.00 h
t1/2 ([1]; SC): 29.98 h

SEQ ID NO: 26: PEGylated double homoarginine analog (WVTHXLAGLLSXSGGVVRKNFVPTDVGPFAF; PEGylated; homoarginine residues; CGRP peptide; MOD_RES (1)..(1): …ON; MISC_FEATURE (5)..(5): xaa=homoarginine; MISC_FEATURE (12)..(12): xaa=homoarginine; MISC_FEATURE (19)..(19): PEGylated; MOD_RES (31)..(31): AMIDATION)
AUC0-inf ([1]; IV): 24555 ng·h/mL
AUC0-t ([1]; IV): 24546 ng·h/mL
CL ([1]; IV): 81 mL/h/kg
MRT ([1]; IV): 1.01 h
Vss ([1]; IV): 83 mL/kg
t1/2 ([1]; IV): 7.39 h
AUC0-inf ([1]; SC): 1204 ng·h/mL
AUC0-t ([1]; SC): 1188 ng·h/mL
CL/F ([1]; SC): 1660 mL/h/kg
Cmax ([1]; SC): 143 ng/mL
Tmax ([1]; SC): 2.00 h
t1/2 ([1]; SC): 26.17 h

CC(=O)N[C@@H](Cc1c[nH]c2ccccc12)C(=O)N[C@H](C(=O)N[C@H](C(=O)N[C@@H](Cc1cnc[nH]1)C(=O)N[C@@H](CCCCNC(=N)N)C(=O)N[C@@H](CC(C)C)C(=O)N[C@@H](C)C(=O)NCC(=O)N[C@@H](CC(C)C)C(=O)N[C@@H](CC(C)C)C(=O)N[C@@H](CO)C(=O)N[C@@H](CCCCNC(=N)N)C(=O)N[C@@H](CO)C(=O)NCC(=O)NCC(=O)N[C@H](C(=O)N[C@H](C(=O)N[C@@H](CCCNC(=N)N)C(=O)N[C@@H](CCCCN)C(=O)N[C@@H](CC(N)=O)C(=O)N[C@@H](Cc1ccccc1)C(=O)N[C@H](C(=O)N1CCC[C@H]1C(=O)N[C@H](C(=O)N[C@@H](CC(=O)O)C(=O)N[C@H](C(=O)NCC(=O)N1CCC[C@H]1C(=O)N[C@@H](Cc1ccccc1)C(=O)N[C@@H](C)C(=O)N[C@@H](Cc1ccccc1)C(N)=O)C(C)C)[C@@H](C)O)C(C)C)C(C)C)C(C)C)[C@@H](C)O)C(C)C [compound 25]
% Remaining [4]: 100.0%
remaining at 0.5 h, 100 ng/ml [4]: 76.9%
remaining at 1 h, 100 ng/ml [4]: 58.1%
remaining at 2 h, 100 ng/ml [4]: 27.5%
remaining at 3 h, 100 ng/ml [4]: 21.3%
remaining at 4 h, 100 ng/ml [4]: 16.3%
remaining at 5 h, 100 ng/ml [4]: 11%
remaining at 6 h, 100 ng/ml [4]: 7.1%

Ac-WVTHRLAGLLSQSGGVVRKNFVPTDVGPFAF-NH2 [SEQ ID NO: 37]
% Remaining [3]: 100.0%
remaining at 0.17 h, 100 ng/ml [3]: 59%
remaining at 0.5 h, 100 ng/ml [3]: 20.6%
remaining at 1 h, 100 ng/ml [3]: 10%
remaining at 2 h, 100 ng/ml [3]: 2.3%
remaining at 3 h, 100 ng/ml [3]: 1.3%
remaining at 4 h, 100 ng/ml [3]: 0.7%
remaining at 5 h, 100 ng/ml [3]: 0.7%
remaining at 6 h, 100 ng/ml [3]: 0%

Ac-WVTHQLAGLLSQSGGVVRKNFVPTDVGPFAF-NH2 [SEQ ID NO: 39]
% Remaining [3]: 100.0%
remaining at 0.17 h, 100 ng/ml [3]: 74.2%
remaining at 0.5 h, 100 ng/ml [3]: 54%
remaining at 1 h, 100 ng/ml [3]: 50.2%
remaining at 2 h, 100 ng/ml [3]: 36.7%
remaining at 3 h, 100 ng/ml [3]: 15.8%
remaining at 4 h, 100 ng/ml [3]: 11.3%
remaining at 5 h, 100 ng/ml [3]: 6.3%
remaining at 6 h, 100 ng/ml [3]: 5.2%

SEQ ID NO: 15: 20 kDa PEG conjugate of SEQ ID NO:7 (reductive alkylation) (Ac-WVTHRLAGLLSRSGGVVRK(20 kDa PEG)NFVPTDVGPFAF-NH2)
AUC0-inf ([1]; IV): 12959 ng·h/mL
AUC0-t ([1]; IV): 12940 ng·h/mL
CL ([1]; IV): 154 mL/h/kg
MRT ([1]; IV): 1.10 h
Vss ([1]; IV): 174 mL/kg
t1/2 ([1]; IV): 10.60 h
AUC0-inf ([1]; SC): 1542 ng·h/mL
AUC0-t ([1]; SC): 1264 ng·h/mL
CL/F ([1]; SC): 1257 mL/h/kg
Cmax ([1]; SC): 137 ng/mL
Tmax ([1]; SC): 2.00 h
t1/2 ([1]; SC): 22.37 h

Ac-WVTHQLAGLLSQSGGVVRKNFVPTDVGPFAF-NH2 [compound 39]
% Remaining [4]: 100.0%
remaining at 0.5 h, 100 ng/ml [4]: 83.8%
remaining at 1 h, 100 ng/ml [4]: 66.2%
remaining at 2 h, 100 ng/ml [4]: 29.9%
remaining at 3 h, 100 ng/ml [4]: 20.4%
remaining at 4 h, 100 ng/ml [4]: 11.8%
remaining at 5 h, 100 ng/ml [4]: 6.4%
remaining at 6 h, 100 ng/ml [4]: 4%

Ac-WVTHRLAGLLSQSGGVVRKNFVPTDVGPFAF-NH2 [compound 37]
% Remaining [4]: 100.0%
remaining at 0.5 h, 100 ng/ml [4]: 62.7%
remaining at 1 h, 100 ng/ml [4]: 39.5%
remaining at 2 h, 100 ng/ml [4]: 10.5%
remaining at 3 h, 100 ng/ml [4]: 4.7%
remaining at 4 h, 100 ng/ml [4]: 2.5%
remaining at 5 h, 100 ng/ml [4]: 1.3%
remaining at 6 h, 100 ng/ml [4]: 0.7%

CC(=O)N[C@@H](Cc1c[nH]c2ccccc12)C(=O)N[C@H](C(=O)N[C@H](C(=O)N[C@@H](Cc1c[nH]cn1)C(=O)N[C@@H](CCCNC(N)=O)C(=O)N[C@@H](CC(C)C)C(=O)N[C@@H](C)C(=O)NCC(=O)N[C@@H](CC(C)C)C(=O)N[C@@H](CC(C)C)C(=O)N[C@@H](CO)C(=O)N[C@@H](CCCNC(N)=O)C(=O)N[C@@H](CO)C(=O)NCC(=O)NCC(=O)N[C@H](C(=O)N[C@H](C(=O)N[C@@H](CCCCNC(=N)N)C(=O)N[C@@H](CCCCN)C(=O)N[C@@H](CC(N)=O)C(=O)N[C@@H](Cc1ccccc1)C(=O)N[C@H](C(=O)N1CCC[C@H]1C(=O)N[C@H](C(=O)N[C@@H](CC(=O)O)C(=O)N[C@H](C(=O)NCC(=O)N1CCC[C@H]1C(=O)N[C@@H](Cc1cccc2ccccc12)C(=O)N[C@@H](C)C(=O)N[C@@H](Cc1ccccc1)C(N)=O)C(C)C)[C@@H](C)O)C(C)C)C(C)C)C(C)C)[C@@H](C)O)C(C)C [compound 144] (Ac-WVTH[Cit]LAGLLS[Cit]SGGVV[hArg]KNFVPTDVGP[1Nal]AF-NH2)
IC50 ([2]; Table 2A, read-out: IC50): 2.24 nM
